Six molecules from paper PMC9482650, “Quantitative fragmentomics allow affinity mapping of interactomes” (Nature Communications, 2022) can be followed below.

Targets include GOPC, Q9HD26; GRID2IP_2, A4D2P6; IL16_4, Q14005; Inadl_6, Q8NI35; MAGI2_4, Q86UL8; SCRIB_1, Q14160; TJP2_1, Q9UDY2.
Test in all cases: holdup assay
What all share (design): key: below the threshold = too weak to quantify, mostly under pKd 3.1 to 4

In a further assay the target is T1, ARHGEF11, O15085.
T1 sequence (O15085 42-136, limits assumed, looked up): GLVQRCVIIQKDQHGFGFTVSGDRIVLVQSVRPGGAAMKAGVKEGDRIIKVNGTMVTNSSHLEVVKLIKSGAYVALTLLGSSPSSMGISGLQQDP
To be noted: plain residues with an end cap or a label only (N-terminal biotin on a linker: ttds).

For the next assay, the target named is T2, CARD11, Q9BXL7.
T2 sequence (Q9BXL7 662-765, limits assumed, looked up): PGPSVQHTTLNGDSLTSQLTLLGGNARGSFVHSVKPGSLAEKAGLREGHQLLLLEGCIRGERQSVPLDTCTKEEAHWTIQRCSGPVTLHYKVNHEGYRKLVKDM
To be noted: plain residues with an end cap or a label only (N-terminal biotin on a linker: ttds).

Another assay addresses T3, DLG3_2, Q92796.
T3 sequence (Q92796 221-321, limits assumed, looked up): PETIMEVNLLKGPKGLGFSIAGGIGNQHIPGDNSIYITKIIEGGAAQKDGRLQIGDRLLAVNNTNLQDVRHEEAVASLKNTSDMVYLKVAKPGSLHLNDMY
To be noted: plain residues with an end cap or a label only (N-terminal biotin on a linker: ttds).

For a further assay, the target named is T4, GRIP1_5, Q9Y3R0.
T4 sequence (Q9Y3R0 568-668, limits assumed, looked up): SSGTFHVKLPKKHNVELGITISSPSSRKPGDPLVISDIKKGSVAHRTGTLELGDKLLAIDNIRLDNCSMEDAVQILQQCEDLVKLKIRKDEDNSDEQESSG

A further assay deals with HTRA1, Q92743. To be noted: plain residues with an end cap or a label only (N-terminal biotin on a linker: ttds).
Chain of HTRA1, Q92743 (Q92743 360-477): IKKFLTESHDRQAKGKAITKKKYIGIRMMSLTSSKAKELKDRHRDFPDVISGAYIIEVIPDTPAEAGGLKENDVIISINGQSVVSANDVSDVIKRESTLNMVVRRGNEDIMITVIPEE
The next assay addresses T5, LIN7A, O14910.
T5 sequence (O14910 103-200, limits assumed, looked up): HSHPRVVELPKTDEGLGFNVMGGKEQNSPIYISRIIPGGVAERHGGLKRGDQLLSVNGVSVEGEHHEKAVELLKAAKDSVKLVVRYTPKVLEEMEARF

In a further assay the target is T6, LIN7B, Q9HAP6.
T6 sequence (Q9HAP6 88-185, limits assumed, looked up): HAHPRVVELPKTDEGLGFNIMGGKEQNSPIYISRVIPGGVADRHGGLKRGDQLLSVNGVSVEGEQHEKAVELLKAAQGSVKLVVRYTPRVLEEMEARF
To be noted: plain residues with an end cap or a label only (N-terminal biotin on a linker: ttds).

In a further assay the target is T7, LIN7C, Q9NUP9.
T7 sequence (Q9NUP9 88-185, limits assumed, looked up): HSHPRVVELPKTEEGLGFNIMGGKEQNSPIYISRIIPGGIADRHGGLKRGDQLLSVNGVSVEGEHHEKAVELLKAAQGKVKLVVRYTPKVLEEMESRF

In a further assay the target is MAGI2_2, Q86UL8. To be noted: plain residues with an end cap or a label only (N-terminal biotin on a linker: ttds).
Chain of MAGI2_2, Q86UL8 (Q86UL8 410-522): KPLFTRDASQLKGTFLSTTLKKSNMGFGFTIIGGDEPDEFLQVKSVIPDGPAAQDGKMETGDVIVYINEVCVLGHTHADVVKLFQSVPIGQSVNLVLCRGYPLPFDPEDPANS
In the next assay the target is MAGI2_6, Q86UL8. To be noted: plain residues with an end cap or a label only (N-terminal biotin on a linker: ttds).
Chain of MAGI2_6, Q86UL8 (Q86UL8 1141-1229): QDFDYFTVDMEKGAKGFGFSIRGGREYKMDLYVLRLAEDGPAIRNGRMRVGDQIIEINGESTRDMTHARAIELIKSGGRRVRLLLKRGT
Another assay has as its target MAGI3_2, Q5TCQ9. To be noted: plain residues with an end cap or a label only (N-terminal biotin on a linker: ttds).
The next assay has as its target T8, NHERF3_4, Q5T2W1.
T8 sequence (Q5T2W1 373-468, limits assumed, looked up): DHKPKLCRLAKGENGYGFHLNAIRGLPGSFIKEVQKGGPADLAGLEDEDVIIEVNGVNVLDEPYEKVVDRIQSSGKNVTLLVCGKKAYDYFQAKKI

The target in a further assay is T9, PARD3B_1, Q8TEW8.
T9 sequence (Q8TEW8 196-299, limits assumed, looked up): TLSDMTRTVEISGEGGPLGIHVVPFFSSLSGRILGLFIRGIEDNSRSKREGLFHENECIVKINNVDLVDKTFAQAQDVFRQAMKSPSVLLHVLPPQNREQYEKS

Another assay addresses T10, PTPN13_1, Q12923.
T10 sequence (Q12923 1088-1188, limits assumed, looked up): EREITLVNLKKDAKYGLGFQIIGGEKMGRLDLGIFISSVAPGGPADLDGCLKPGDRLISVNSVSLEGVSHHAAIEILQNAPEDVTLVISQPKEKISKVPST

The next assay has as its target T11, RHPN1, Q8TCX5.
T11 sequence (Q8TCX5 508-602, limits assumed, looked up): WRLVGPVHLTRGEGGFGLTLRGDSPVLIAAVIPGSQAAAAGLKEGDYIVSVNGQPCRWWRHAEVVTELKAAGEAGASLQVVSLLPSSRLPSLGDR
To be noted: plain residues with an end cap or a label only (N-terminal biotin on a linker: ttds).

In the next assay the target is T12, SNTG2, Q9NY99.
T12 sequence (Q9NY99 68-166, limits assumed, looked up): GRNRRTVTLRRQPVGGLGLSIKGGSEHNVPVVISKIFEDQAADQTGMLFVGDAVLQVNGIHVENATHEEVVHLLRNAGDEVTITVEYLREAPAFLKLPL

Another assay concerns the target T13, TIAM2, Q8IVF5.
T13 sequence (Q8IVF5 885-986, limits assumed, looked up): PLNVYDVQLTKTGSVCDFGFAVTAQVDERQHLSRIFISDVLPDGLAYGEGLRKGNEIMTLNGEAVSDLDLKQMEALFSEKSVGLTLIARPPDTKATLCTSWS
To be noted: plain residues with an end cap or a label only (N-terminal biotin on a linker: ttds).

Setting [1] is: plain residues with an end cap or a label only (N-terminal biotin on a linker: ttds).
The mark [2] stands for this setting: plain residues with an end cap or a label only (N-terminal biotin on a linker: ado-ado).

Chain of IL16_4, Q14005 (Q14005 1229-1329): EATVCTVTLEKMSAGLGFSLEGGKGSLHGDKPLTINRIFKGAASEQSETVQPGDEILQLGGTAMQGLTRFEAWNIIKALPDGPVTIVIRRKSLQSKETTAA
Chain of TJP2_1, Q9UDY2 (Q9UDY2 24-128): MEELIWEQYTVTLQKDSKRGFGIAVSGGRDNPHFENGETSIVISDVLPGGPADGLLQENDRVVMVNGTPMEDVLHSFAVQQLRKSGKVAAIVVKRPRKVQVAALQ
Chain of GRID2IP_2, A4D2P6 (A4D2P6 272-370): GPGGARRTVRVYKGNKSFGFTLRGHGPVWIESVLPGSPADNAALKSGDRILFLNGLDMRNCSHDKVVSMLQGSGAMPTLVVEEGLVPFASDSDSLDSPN
Chain of Inadl_6, Q8NI35 (Q8NI35 1058-1167): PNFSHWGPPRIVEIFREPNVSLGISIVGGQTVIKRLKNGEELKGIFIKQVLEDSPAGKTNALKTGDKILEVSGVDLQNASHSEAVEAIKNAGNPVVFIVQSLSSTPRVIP
Chain of SCRIB_1, Q14160 (Q14160 718-814): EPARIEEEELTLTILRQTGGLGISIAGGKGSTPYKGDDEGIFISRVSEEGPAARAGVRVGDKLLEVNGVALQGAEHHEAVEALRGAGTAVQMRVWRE
Chain of MAGI3_2, Q5TCQ9 (Q5TCQ9 398-503): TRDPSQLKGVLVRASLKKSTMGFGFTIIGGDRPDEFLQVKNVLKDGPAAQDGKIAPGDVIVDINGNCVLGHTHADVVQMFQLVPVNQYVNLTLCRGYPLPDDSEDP
Chain of MAGI2_4, Q86UL8 (Q86UL8 772-865): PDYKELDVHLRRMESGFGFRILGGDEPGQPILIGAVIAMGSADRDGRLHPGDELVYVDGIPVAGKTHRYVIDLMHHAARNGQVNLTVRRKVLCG

As usually defined, the pKd is −log10 of the Kd, conventionally taken in molar units. For SRPQRTQTQV [HPV67-E6, A4U7F2], the pKd is 4.05 in the assay with ARHGEF11, O15085; “below the threshold” with CARD11, Q9BXL7; 5.06 with DLG3_2, Q92796; 3.58 with GOPC, Q9HD26 (setting [1]); “below the threshold” with GRID2IP_2, A4D2P6 (setting [1]); “below the threshold” in the assay with GRIP1_5, Q9Y3R0 (setting [1]). In addition, the pKd entry is “below the threshold” in the assay with HTRA1, Q92743; “below the threshold” with IL16_4, Q14005 (setting [1]); “below the threshold” with Inadl_6, Q8NI35 (setting [1]); “below the threshold” with LIN7A, O14910 (setting [1]); “below the threshold” with LIN7B, Q9HAP6; “below the threshold” with LIN7C, Q9NUP9 (setting [1]). For the same molecule, the pKd with MAGI2_2, Q86UL8 was 5.32; in the assay with MAGI2_4, Q86UL8 (setting [1]), 4.14; with MAGI2_6, Q86UL8 it was “below the threshold”; with MAGI3_2, Q5TCQ9, 5.42; with NHERF3_4, Q5T2W1 (setting [1]), “below the threshold”; with PARD3B_1, Q8TEW8 (setting [1]), “below the threshold”. Further, the negative logarithm of the Kd (pKd) result is “below the threshold” in the assay with PTPN13_1, Q12923 (setting [1]); 3.84 with RHPN1, Q8TCX5; “below the threshold” with SCRIB_1, Q14160 (setting [1]); 3.98 in the assay with SNTG2, Q9NY99 (setting [1]); “below the threshold” with TIAM2, Q8IVF5; 3.86 with TJP2_1, Q9UDY2 (setting [1]).
Regarding KSRVAFFEEL [NF2, P35240], the negative logarithm of the Kd (pKd) in the assay with GOPC, Q9HD26 (setting [2]) was found to be 3.63; with GRID2IP_2, A4D2P6 (setting [2]) it was 3.59; with GRIP1_5, Q9Y3R0 (setting [2]), 3.62; in the assay with IL16_4, Q14005 (setting [2]), 3.68; in the assay with Inadl_6, Q8NI35 (setting [2]), 3.47; with LIN7A, O14910 (setting [2]), 3.51. Besides, the pKd with MAGI2_4, Q86UL8 (setting [2]) amounted to 3.83; in the assay with NHERF3_4, Q5T2W1 (setting [2]) it was 3.59; with PARD3B_1, Q8TEW8 (setting [2]) it was 3.83; with SCRIB_1, Q14160 (setting [2]) it was 3.64; with SNTG2, Q9NY99 (setting [2]) it was 3.74; with TJP2_1, Q9UDY2 (setting [2]), 3.63.
For RSLEEEESQL [GRASP, Q7Z6J2], the pKd with ARHGEF11, O15085 is 3.78; in the assay with CARD11, Q9BXL7, 3.81; in the assay with DLG3_2, Q92796 it was 3.63; with GOPC, Q9HD26 (setting [1]), 4.01; with GRID2IP_2, A4D2P6 (setting [1]), 4.33; in the assay with GRIP1_5, Q9Y3R0 (setting [1]) it was 3.87. For the same molecule, the pKd was found to be 4.33 in the assay with HTRA1, Q92743; 3.54 with IL16_4, Q14005 (setting [1]); 4.05 in the assay with Inadl_6, Q8NI35 (setting [1]); 3.56 in the assay with LIN7A, O14910 (setting [1]); 3.7 in the assay with LIN7B, Q9HAP6; 3.78 in the assay with LIN7C, Q9NUP9 (setting [1]). Moreover, the pKd result was “below the threshold” with MAGI2_2, Q86UL8; 3.7 with MAGI2_4, Q86UL8 (setting [1]); “below the threshold” with MAGI2_6, Q86UL8; 3.81 in the assay with MAGI3_2, Q5TCQ9; “below the threshold” with NHERF3_4, Q5T2W1 (setting [1]); 4.28 with PARD3B_1, Q8TEW8 (setting [1]). Besides, the pKd in the assay with PTPN13_1, Q12923 (setting [1]) was 3.63; with RHPN1, Q8TCX5, 4.71; with SCRIB_1, Q14160 (setting [1]) it was 3.55; in the assay with SNTG2, Q9NY99 (setting [1]), “below the threshold”; with TIAM2, Q8IVF5, “below the threshold”; with TJP2_1, Q9UDY2 (setting [1]), 3.65.
Consider KRPEMTSSSV [MUC3B, MUC3A, Q02505;Q9H195], for which the negative logarithm of the Kd (pKd) is 3.96 with GOPC, Q9HD26 (setting [2]); “below the threshold” with LIN7C, Q9NUP9 (setting [2]); “below the threshold” with NHERF3_4, Q5T2W1 (setting [2]); “below the threshold” with PTPN13_1, Q12923 (setting [2]); “below the threshold” in the assay with SCRIB_1, Q14160 (setting [2]); 3.9 with SNTG2, Q9NY99 (setting [2]).
Turning to SSRTRRETQL [HPV16-E6, P03126], the pKd with ARHGEF11, O15085 was 4.15; with CARD11, Q9BXL7 it was “below the threshold”; in the assay with DLG3_2, Q92796, 4.8; in the assay with GRID2IP_2, A4D2P6 (setting [1]), 3.86; with GRIP1_5, Q9Y3R0 (setting [1]), “below the threshold”; with HTRA1, Q92743, “below the threshold”. The pKd entry was “below the threshold” with IL16_4, Q14005 (setting [1]); 3.49 in the assay with Inadl_6, Q8NI35 (setting [1]); “below the threshold” in the assay with LIN7A, O14910 (setting [1]); 3.91 with LIN7B, Q9HAP6; 4.04 with LIN7C, Q9NUP9 (setting [1]); 4.87 with MAGI2_2, Q86UL8. The pKd with MAGI2_4, Q86UL8 (setting [1]) is 3.89; with MAGI2_6, Q86UL8, 3.61; with MAGI3_2, Q5TCQ9, 5.31; with NHERF3_4, Q5T2W1 (setting [1]), 3.89; in the assay with PARD3B_1, Q8TEW8 (setting [1]), “below the threshold”; with PTPN13_1, Q12923 (setting [1]), 3.56. The negative-log Kd (pKd) with RHPN1, Q8TCX5 is 4.23; in the assay with SCRIB_1, Q14160 (setting [1]), 5.42; with SNTG2, Q9NY99 (setting [1]), 4.45; with TIAM2, Q8IVF5, “below the threshold”; with TJP2_1, Q9UDY2 (setting [1]), 4.12.
As for SVWLRKETRV [CYSLTR2, Q9NS75], the pKd was 4.46 in the assay with ARHGEF11, O15085; “below the threshold” in the assay with CARD11, Q9BXL7; 5.32 in the assay with DLG3_2, Q92796; 4.27 with GOPC, Q9HD26 (setting [1]); 3.45 with GRID2IP_2, A4D2P6 (setting [1]); “below the threshold” with GRIP1_5, Q9Y3R0 (setting [1]). Moreover, the negative-log Kd (pKd) result with HTRA1, Q92743 was “below the threshold”; with IL16_4, Q14005 (setting [1]) it was “below the threshold”; with Inadl_6, Q8NI35 (setting [1]), “below the threshold”; with LIN7A, O14910 (setting [1]) it was 4.17; with LIN7B, Q9HAP6 it was 4.35; with LIN7C, Q9NUP9 (setting [1]), 5.03. In addition, the negative-log Kd (pKd) with MAGI2_2, Q86UL8 is 5.68; with MAGI2_4, Q86UL8 (setting [1]) it was 4.06; in the assay with MAGI2_6, Q86UL8, 3.51; with MAGI3_2, Q5TCQ9 it was 5.75; with NHERF3_4, Q5T2W1 (setting [1]), 3.48; with PARD3B_1, Q8TEW8 (setting [1]), “below the threshold”. The negative-log Kd (pKd) in the assay with PTPN13_1, Q12923 (setting [1]) is 3.43; with RHPN1, Q8TCX5, 4.08; in the assay with SCRIB_1, Q14160 (setting [1]) it was 4.28; in the assay with SNTG2, Q9NY99 (setting [1]) it was 5.09; with TIAM2, Q8IVF5, “below the threshold”; in the assay with TJP2_1, Q9UDY2 (setting [1]) it was 4.45.
